# Data from patent US20140087995A1 (published 2014).
# Numbered stars: 1 amine (or outer) side, 2 acyl side, 3 side chain; on linkers, the order of the positions; unused ones are H or OH. Bridge positions count the residues as written; N and C are the ends. Side chains are listed from the residue outwards. Ends that are not written are not given here. * marks the point of attachment. C20 diacid = O=C(O)CCCCCCCCCCCCCCCCCCC(=O)*; γGlu = O=C(O)[C@H](CCC(=O)[*:2])N[*:1]; AEEA = NCCOCCOCC(=O)O
# T1: human amylin 3(a) receptor (human calcitonin receptor co-expressed with RAMP-3) (human, UniProt P30988 25-474; O60896 24-148, limits assumed)
# T1 sequence (looked up) 1: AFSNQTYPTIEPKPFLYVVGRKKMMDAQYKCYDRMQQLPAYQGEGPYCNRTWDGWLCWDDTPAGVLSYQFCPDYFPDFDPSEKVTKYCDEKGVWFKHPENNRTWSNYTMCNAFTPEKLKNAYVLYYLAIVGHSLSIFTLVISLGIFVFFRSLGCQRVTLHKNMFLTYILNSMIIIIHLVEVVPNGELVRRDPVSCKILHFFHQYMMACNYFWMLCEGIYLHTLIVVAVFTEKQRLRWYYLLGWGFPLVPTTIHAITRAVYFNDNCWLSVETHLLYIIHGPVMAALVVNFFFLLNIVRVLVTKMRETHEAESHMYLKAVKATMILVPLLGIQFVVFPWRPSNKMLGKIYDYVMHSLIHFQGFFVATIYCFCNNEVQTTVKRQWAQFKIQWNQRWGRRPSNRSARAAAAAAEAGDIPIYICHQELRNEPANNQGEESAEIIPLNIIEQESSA
# T1 sequence (looked up) 2: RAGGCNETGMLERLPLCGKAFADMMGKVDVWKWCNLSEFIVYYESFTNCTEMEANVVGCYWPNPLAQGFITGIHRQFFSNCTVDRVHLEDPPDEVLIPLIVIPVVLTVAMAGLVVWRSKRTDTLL
# Biological target: T1, human amylin 3(a) receptor (human …)
# Assay: cell-based or functional assay
Ratio hCT/hAmylin funct. (hCTR EC50 over hAmylin-R EC50),hAmylin-R funct. EC50 (pM),Binder
24.8,297 pM,"K([AEEA-γGlu-C20 diacid])CNTATCATQRLANFLRHSSPNFGAIPSSTNVGHNTY-NH2 (disulfide 2-7; N-terminus assumed; SMILES CC[C@H](C)[C@H](NC(=O)[C@H](C)NC(=O)CNC(=O)[C@H](Cc1ccccc1)NC(=O)[C@H](CC(N)=O)NC(=O)[C@@H]1CCCN1C(=O)[C@H](CO)NC(=O)[C@H](CO)NC(=O)[C@H](Cc1c[nH]cn1)NC(=O)[C@H](CCCNC(=N)N)NC(=O)[C@H](CC(C)C)NC(=O)[C@H](Cc1ccccc1)NC(=O)[C@H](CC(N)=O)NC(=O)[C@H](C)NC(=O)[C@H](CC(C)C)NC(=O)[C@H](CCCNC(=N)N)NC(=O)[C@H](CCC(N)=O)NC(=O)[C@@H](NC(=O)[C@H](C)NC(=O)[C@@H]1CSSC[C@H](NC(=O)[C@@H](N)CCCCNC(=O)COCCOCCNC(=O)CC[C@H](NC(=O)CCCCCCCCCCCCCCCCCCC(=O)O)C(=O)O)C(=O)N[C@@H](CC(N)=O)C(=O)N[C@@H]([C@@H](C)O)C(=O)N[C@@H](C)C(=O)N[C@@H]([C@@H](C)O)C(=O)N1)[C@@H](C)O)C(=O)N1CCC[C@H]1C(=O)N[C@@H](CO)C(=O)N[C@@H](CO)C(=O)N[C@H](C(=O)N[C@@H](CC(N)=O)C(=O)N[C@H](C(=O)NCC(=O)N[C@@H](Cc1c[nH]cn1)C(=O)N[C@@H](CC(N)=O)C(=O)N[C@H](C(=O)N[C@@H](Cc1ccc(O)cc1)C(N)=O)[C@@H](C)O)C(C)C)[C@@H](C)O, also called compound 76)"
22.5,106 pM,"K([AEEA-γGlu-C20 diacid])CNTATCATQRLANFLRHSSPNFGAIPSSTPVGSNTY-NH2 (disulfide 2-7; N-terminus assumed; SMILES CC[C@H](C)[C@H](NC(=O)[C@H](C)NC(=O)CNC(=O)[C@H](Cc1ccccc1)NC(=O)[C@H](CC(N)=O)NC(=O)[C@@H]1CCCN1C(=O)[C@H](CO)NC(=O)[C@H](CO)NC(=O)[C@H](Cc1c[nH]cn1)NC(=O)[C@H](CCCNC(=N)N)NC(=O)[C@H](CC(C)C)NC(=O)[C@H](Cc1ccccc1)NC(=O)[C@H](CC(N)=O)NC(=O)[C@H](C)NC(=O)[C@H](CC(C)C)NC(=O)[C@H](CCCNC(=N)N)NC(=O)[C@H](CCC(N)=O)NC(=O)[C@@H](NC(=O)[C@H](C)NC(=O)[C@@H]1CSSC[C@H](NC(=O)[C@@H](N)CCCCNC(=O)COCCOCCNC(=O)CC[C@H](NC(=O)CCCCCCCCCCCCCCCCCCC(=O)O)C(=O)O)C(=O)N[C@@H](CC(N)=O)C(=O)N[C@@H]([C@@H](C)O)C(=O)N[C@@H](C)C(=O)N[C@@H]([C@@H](C)O)C(=O)N1)[C@@H](C)O)C(=O)N1CCC[C@H]1C(=O)N[C@@H](CO)C(=O)N[C@@H](CO)C(=O)N[C@H](C(=O)N1CCC[C@H]1C(=O)N[C@H](C(=O)NCC(=O)N[C@@H](CO)C(=O)N[C@@H](CC(N)=O)C(=O)N[C@H](C(=O)N[C@@H](Cc1ccc(O)cc1)C(N)=O)[C@@H](C)O)C(C)C)[C@@H](C)O, also called compound 49)"
17.4,38 pM,"K([AEEA-γGlu-C20 diacid])CNTATCATQRLANFLRHSSPNFGAIPSSTNVGPNTY-NH2 (disulfide 2-7; N-terminus assumed; SMILES CC[C@H](C)[C@H](NC(=O)[C@H](C)NC(=O)CNC(=O)[C@H](Cc1ccccc1)NC(=O)[C@H](CC(N)=O)NC(=O)[C@@H]1CCCN1C(=O)[C@H](CO)NC(=O)[C@H](CO)NC(=O)[C@H](Cc1c[nH]cn1)NC(=O)[C@H](CCCNC(=N)N)NC(=O)[C@H](CC(C)C)NC(=O)[C@H](Cc1ccccc1)NC(=O)[C@H](CC(N)=O)NC(=O)[C@H](C)NC(=O)[C@H](CC(C)C)NC(=O)[C@H](CCCNC(=N)N)NC(=O)[C@H](CCC(N)=O)NC(=O)[C@@H](NC(=O)[C@H](C)NC(=O)[C@@H]1CSSC[C@H](NC(=O)[C@@H](N)CCCCNC(=O)COCCOCCNC(=O)CC[C@H](NC(=O)CCCCCCCCCCCCCCCCCCC(=O)O)C(=O)O)C(=O)N[C@@H](CC(N)=O)C(=O)N[C@@H]([C@@H](C)O)C(=O)N[C@@H](C)C(=O)N[C@@H]([C@@H](C)O)C(=O)N1)[C@@H](C)O)C(=O)N1CCC[C@H]1C(=O)N[C@@H](CO)C(=O)N[C@@H](CO)C(=O)N[C@H](C(=O)N[C@@H](CC(N)=O)C(=O)N[C@H](C(=O)NCC(=O)N1CCC[C@H]1C(=O)N[C@@H](CC(N)=O)C(=O)N[C@H](C(=O)N[C@@H](Cc1ccc(O)cc1)C(N)=O)[C@@H](C)O)C(C)C)[C@@H](C)O, also called compound 50)"
21.9,47 pM,"K([AEEA-γGlu-C20 diacid])CNTATCATQRLANFLRHSSPNFGAIPSSTNVGPHTY-NH2 (disulfide 2-7; N-terminus assumed; SMILES CC[C@H](C)[C@H](NC(=O)[C@H](C)NC(=O)CNC(=O)[C@H](Cc1ccccc1)NC(=O)[C@H](CC(N)=O)NC(=O)[C@@H]1CCCN1C(=O)[C@H](CO)NC(=O)[C@H](CO)NC(=O)[C@H](Cc1c[nH]cn1)NC(=O)[C@H](CCCNC(=N)N)NC(=O)[C@H](CC(C)C)NC(=O)[C@H](Cc1ccccc1)NC(=O)[C@H](CC(N)=O)NC(=O)[C@H](C)NC(=O)[C@H](CC(C)C)NC(=O)[C@H](CCCNC(=N)N)NC(=O)[C@H](CCC(N)=O)NC(=O)[C@@H](NC(=O)[C@H](C)NC(=O)[C@@H]1CSSC[C@H](NC(=O)[C@@H](N)CCCCNC(=O)COCCOCCNC(=O)CC[C@H](NC(=O)CCCCCCCCCCCCCCCCCCC(=O)O)C(=O)O)C(=O)N[C@@H](CC(N)=O)C(=O)N[C@@H]([C@@H](C)O)C(=O)N[C@@H](C)C(=O)N[C@@H]([C@@H](C)O)C(=O)N1)[C@@H](C)O)C(=O)N1CCC[C@H]1C(=O)N[C@@H](CO)C(=O)N[C@@H](CO)C(=O)N[C@H](C(=O)N[C@@H](CC(N)=O)C(=O)N[C@H](C(=O)NCC(=O)N1CCC[C@H]1C(=O)N[C@@H](Cc1c[nH]cn1)C(=O)N[C@H](C(=O)N[C@@H](Cc1ccc(O)cc1)C(N)=O)[C@@H](C)O)C(C)C)[C@@H](C)O, also called compound 58)"
35,89 pM,"K([AEEA-γGlu-C20 diacid])CNTATCATQRLANFLRHSSPNFGAIPSSTPVGSHTY-NH2 (disulfide 2-7; N-terminus assumed; SMILES CC[C@H](C)[C@H](NC(=O)[C@H](C)NC(=O)CNC(=O)[C@H](Cc1ccccc1)NC(=O)[C@H](CC(N)=O)NC(=O)[C@@H]1CCCN1C(=O)[C@H](CO)NC(=O)[C@H](CO)NC(=O)[C@H](Cc1c[nH]cn1)NC(=O)[C@H](CCCNC(=N)N)NC(=O)[C@H](CC(C)C)NC(=O)[C@H](Cc1ccccc1)NC(=O)[C@H](CC(N)=O)NC(=O)[C@H](C)NC(=O)[C@H](CC(C)C)NC(=O)[C@H](CCCNC(=N)N)NC(=O)[C@H](CCC(N)=O)NC(=O)[C@@H](NC(=O)[C@H](C)NC(=O)[C@@H]1CSSC[C@H](NC(=O)[C@@H](N)CCCCNC(=O)COCCOCCNC(=O)CC[C@H](NC(=O)CCCCCCCCCCCCCCCCCCC(=O)O)C(=O)O)C(=O)N[C@@H](CC(N)=O)C(=O)N[C@@H]([C@@H](C)O)C(=O)N[C@@H](C)C(=O)N[C@@H]([C@@H](C)O)C(=O)N1)[C@@H](C)O)C(=O)N1CCC[C@H]1C(=O)N[C@@H](CO)C(=O)N[C@@H](CO)C(=O)N[C@H](C(=O)N1CCC[C@H]1C(=O)N[C@H](C(=O)NCC(=O)N[C@@H](CO)C(=O)N[C@@H](Cc1c[nH]cn1)C(=O)N[C@H](C(=O)N[C@@H](Cc1ccc(O)cc1)C(N)=O)[C@@H](C)O)C(C)C)[C@@H](C)O, also called compound 57)"
10.8,68 pM,"K([AEEA-γGlu-C20 diacid])CNTATCATQRLANFLRHSSPNFGAIPPSTNVGPNTY-NH2 (disulfide 2-7; N-terminus assumed; SMILES CC[C@H](C)[C@H](NC(=O)[C@H](C)NC(=O)CNC(=O)[C@H](Cc1ccccc1)NC(=O)[C@H](CC(N)=O)NC(=O)[C@@H]1CCCN1C(=O)[C@H](CO)NC(=O)[C@H](CO)NC(=O)[C@H](Cc1c[nH]cn1)NC(=O)[C@H](CCCNC(=N)N)NC(=O)[C@H](CC(C)C)NC(=O)[C@H](Cc1ccccc1)NC(=O)[C@H](CC(N)=O)NC(=O)[C@H](C)NC(=O)[C@H](CC(C)C)NC(=O)[C@H](CCCNC(=N)N)NC(=O)[C@H](CCC(N)=O)NC(=O)[C@@H](NC(=O)[C@H](C)NC(=O)[C@@H]1CSSC[C@H](NC(=O)[C@@H](N)CCCCNC(=O)COCCOCCNC(=O)CC[C@H](NC(=O)CCCCCCCCCCCCCCCCCCC(=O)O)C(=O)O)C(=O)N[C@@H](CC(N)=O)C(=O)N[C@@H]([C@@H](C)O)C(=O)N[C@@H](C)C(=O)N[C@@H]([C@@H](C)O)C(=O)N1)[C@@H](C)O)C(=O)N1CCC[C@H]1C(=O)N1CCC[C@H]1C(=O)N[C@@H](CO)C(=O)N[C@H](C(=O)N[C@@H](CC(N)=O)C(=O)N[C@H](C(=O)NCC(=O)N1CCC[C@H]1C(=O)N[C@@H](CC(N)=O)C(=O)N[C@H](C(=O)N[C@@H](Cc1ccc(O)cc1)C(N)=O)[C@@H](C)O)C(C)C)[C@@H](C)O, also called compound 55)"
